The chains are these.
B1: library; a variant is named by its letters at N, in order (parent)
chain: GAGACCGCAACTGAAAAGTTGTGGNNNNNATAGTGAGTCGCTGCCTGCAAAGACACAACT

± gives the standard deviation of the averaged measurements.

This data set covers variants of B1. Nature of the data set: ligation selection enrichment (abundance after / before one-round selection) (fold); higher = more template-directed ligation activity. Conditions: with T7Psub CACGGAUGCUAAUACGACUCACUAUA; MgCl2 25 mM; 42 °C; 4 h; pH 8.5. In a few lines: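 In each of two independent experiments, 6 μM RNA substrate was reacted for 4 h at 42 °C with 0.75 μM of a T7-transcribed RNA ligase library randomized at five core positions, in buffer containing 50 mM EPPS pH 8.5 and 25 mM MgCl2. Only reads scoring ≥30 in quality at all randomized positions were counted after MiSeq sequencing. Each enrichment value is the ratio of abundance after ligation to abundance before ligation.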
As to GAGACCGCAACTGAAAAGTTGTGGGTGAAATAGTGAGTCGCTGCCTGCAAAGACACAACT [GTGAA], the ligation selection enrichment worked out at 1.7381 ± 0.00037.
On to GAGACCGCAACTGAAAAGTTGTGGGTGACATAGTGAGTCGCTGCCTGCAAAGACACAACT [GTGAC], for which the ligation selection enrichment was 4.35 ± 0.17.
For the variant GAGACCGCAACTGAAAAGTTGTGGGTGATATAGTGAGTCGCTGCCTGCAAAGACACAACT [GTGAT], the ligation selection enrichment worked out at 89.4 ± 3.
With GAGACCGCAACTGAAAAGTTGTGGGTGAGATAGTGAGTCGCTGCCTGCAAAGACACAACT [GTGAG], the ligation selection enrichment stood at 1.24 ± 0.03.
Consider GAGACCGCAACTGAAAAGTTGTGGATCCGATAGTGAGTCGCTGCCTGCAAAGACACAACT [ATCCG], for which the ligation selection enrichment is 0.765 ± 0.036.
For the variant GAGACCGCAACTGAAAAGTTGTGGATCCCATAGTGAGTCGCTGCCTGCAAAGACACAACT [ATCCC], the ligation selection enrichment came to 0.168 ± 0.049.
GAGACCGCAACTGAAAAGTTGTGGATCCTATAGTGAGTCGCTGCCTGCAAAGACACAACT [ATCCT]: the ligation selection enrichment turned out to be 0.468 ± 0.17.
As for GAGACCGCAACTGAAAAGTTGTGGATCCAATAGTGAGTCGCTGCCTGCAAAGACACAACT [ATCCA], the figure is 0.148 ± 0.027.
On to GAGACCGCAACTGAAAAGTTGTGGTTGGAATAGTGAGTCGCTGCCTGCAAAGACACAACT [TTGGA], for which the ligation selection enrichment came out at 0.294 ± 0.0019.
Consider GAGACCGCAACTGAAAAGTTGTGGTTGGCATAGTGAGTCGCTGCCTGCAAAGACACAACT [TTGGC], for which the ligation selection enrichment amounted to 0.191 ± 0.053.
As for GAGACCGCAACTGAAAAGTTGTGGTTCCCATAGTGAGTCGCTGCCTGCAAAGACACAACT [TTCCC], the figure is 0.175 ± 0.022; as for GAGACCGCAACTGAAAAGTTGTGGTTCCGATAGTGAGTCGCTGCCTGCAAAGACACAACT [TTCCG], 0.813 ± 0.068; as for GAGACCGCAACTGAAAAGTTGTGGTTCCTATAGTGAGTCGCTGCCTGCAAAGACACAACT [TTCCT], 0.443 ± 0.21.
In the case of GAGACCGCAACTGAAAAGTTGTGGTTCCAATAGTGAGTCGCTGCCTGCAAAGACACAACT [TTCCA], the ligation selection enrichment is 0.142 ± 0.0024.
Turning to GAGACCGCAACTGAAAAGTTGTGGATCTTATAGTGAGTCGCTGCCTGCAAAGACACAACT [ATCTT], the ligation selection enrichment was found to be 0.102 ± 0.083.
In the case of GAGACCGCAACTGAAAAGTTGTGGATCTAATAGTGAGTCGCTGCCTGCAAAGACACAACT [ATCTA], the ligation selection enrichment was 0.203 ± 0.01.
The same measure for GAGACCGCAACTGAAAAGTTGTGGATCTCATAGTGAGTCGCTGCCTGCAAAGACACAACT [ATCTC]: 0.078 ± 0.025.
As for GAGACCGCAACTGAAAAGTTGTGGATCTGATAGTGAGTCGCTGCCTGCAAAGACACAACT [ATCTG], the ligation selection enrichment was 0.796 ± 0.041.
Turning to GAGACCGCAACTGAAAAGTTGTGGCTCTAATAGTGAGTCGCTGCCTGCAAAGACACAACT [CTCTA], the ligation selection enrichment was determined as 0.182 ± 0.031.
GAGACCGCAACTGAAAAGTTGTGGCTCTGATAGTGAGTCGCTGCCTGCAAAGACACAACT [CTCTG]: the ligation selection enrichment was 0.298 ± 0.058.
With GAGACCGCAACTGAAAAGTTGTGGCTCTCATAGTGAGTCGCTGCCTGCAAAGACACAACT [CTCTC], the ligation selection enrichment is 0.116 ± 0.0082.
As for GAGACCGCAACTGAAAAGTTGTGGCTCTTATAGTGAGTCGCTGCCTGCAAAGACACAACT [CTCTT], the figure is 0.133 ± 0.075; as for GAGACCGCAACTGAAAAGTTGTGGATGCCATAGTGAGTCGCTGCCTGCAAAGACACAACT [ATGCC], 0.176 ± 0.0063; as for GAGACCGCAACTGAAAAGTTGTGGATGCGATAGTGAGTCGCTGCCTGCAAAGACACAACT [ATGCG], 1.74 ± 0.19.
With GAGACCGCAACTGAAAAGTTGTGGATGCTATAGTGAGTCGCTGCCTGCAAAGACACAACT [ATGCT], the ligation selection enrichment stood at 0.505 ± 0.074.
For GAGACCGCAACTGAAAAGTTGTGGATGCAATAGTGAGTCGCTGCCTGCAAAGACACAACT [ATGCA], the ligation selection enrichment was 0.419 ± 0.021.
Regarding GAGACCGCAACTGAAAAGTTGTGGGTGCCATAGTGAGTCGCTGCCTGCAAAGACACAACT [GTGCC], the ligation selection enrichment came to 0.209 ± 0.022.
For GAGACCGCAACTGAAAAGTTGTGGGTGCAATAGTGAGTCGCTGCCTGCAAAGACACAACT [GTGCA], the ligation selection enrichment came out at 0.307 ± 0.043.
As for GAGACCGCAACTGAAAAGTTGTGGGTGCTATAGTGAGTCGCTGCCTGCAAAGACACAACT [GTGCT], the ligation selection enrichment came out at 0.813 ± 0.23.
Regarding GAGACCGCAACTGAAAAGTTGTGGGTGCGATAGTGAGTCGCTGCCTGCAAAGACACAACT [GTGCG], the ligation selection enrichment amounted to 2.12 ± 0.13.
Take GAGACCGCAACTGAAAAGTTGTGGGTCCAATAGTGAGTCGCTGCCTGCAAAGACACAACT [GTCCA]: the ligation selection enrichment turned out to be 0.148 ± 0.0086.
Regarding GAGACCGCAACTGAAAAGTTGTGGGTCCGATAGTGAGTCGCTGCCTGCAAAGACACAACT [GTCCG], the ligation selection enrichment is 0.529 ± 0.022.
On to GAGACCGCAACTGAAAAGTTGTGGGTCCTATAGTGAGTCGCTGCCTGCAAAGACACAACT [GTCCT], for which the ligation selection enrichment is 0.266 ± 0.14.
In the case of GAGACCGCAACTGAAAAGTTGTGGGTCCCATAGTGAGTCGCTGCCTGCAAAGACACAACT [GTCCC], the ligation selection enrichment stood at 0.151 ± 0.0044.
Consider GAGACCGCAACTGAAAAGTTGTGGTTCTAATAGTGAGTCGCTGCCTGCAAAGACACAACT [TTCTA], for which the ligation selection enrichment was 0.183 ± 0.035.
Consider GAGACCGCAACTGAAAAGTTGTGGTTCTTATAGTGAGTCGCTGCCTGCAAAGACACAACT [TTCTT], for which the ligation selection enrichment came out at 0.119 ± 0.006.
GAGACCGCAACTGAAAAGTTGTGGTTCTGATAGTGAGTCGCTGCCTGCAAAGACACAACT [TTCTG]: the ligation selection enrichment was determined as 0.954 ± 0.089.
With GAGACCGCAACTGAAAAGTTGTGGTTCTCATAGTGAGTCGCTGCCTGCAAAGACACAACT [TTCTC], the ligation selection enrichment was found to be 0.0957 ± 0.032.
The same measure for GAGACCGCAACTGAAAAGTTGTGGGTCTGATAGTGAGTCGCTGCCTGCAAAGACACAACT [GTCTG]: 0.554 ± 0.068; for GAGACCGCAACTGAAAAGTTGTGGGTCTCATAGTGAGTCGCTGCCTGCAAAGACACAACT [GTCTC]: 0.116 ± 0.027; for GAGACCGCAACTGAAAAGTTGTGGGTCTTATAGTGAGTCGCTGCCTGCAAAGACACAACT [GTCTT]: 0.114 ± 0.069.
As for GAGACCGCAACTGAAAAGTTGTGGGTCTAATAGTGAGTCGCTGCCTGCAAAGACACAACT [GTCTA], the figure is 0.177 ± 0.024.
Consider GAGACCGCAACTGAAAAGTTGTGGCTCCGATAGTGAGTCGCTGCCTGCAAAGACACAACT [CTCCG], for which the ligation selection enrichment is 0.347 ± 0.032.
GAGACCGCAACTGAAAAGTTGTGGCTCCCATAGTGAGTCGCTGCCTGCAAAGACACAACT [CTCCC]: the ligation selection enrichment is 0.0937 ± 0.042.

The values are drawn from the supplement of paper PMC10219994.
